# Test results: WO2025083273A1 (dated 2025)
# T1: DR3-8i (human)
# T1 construct: also called purified monomeric DR3-8i antigen protein
# T1 chain: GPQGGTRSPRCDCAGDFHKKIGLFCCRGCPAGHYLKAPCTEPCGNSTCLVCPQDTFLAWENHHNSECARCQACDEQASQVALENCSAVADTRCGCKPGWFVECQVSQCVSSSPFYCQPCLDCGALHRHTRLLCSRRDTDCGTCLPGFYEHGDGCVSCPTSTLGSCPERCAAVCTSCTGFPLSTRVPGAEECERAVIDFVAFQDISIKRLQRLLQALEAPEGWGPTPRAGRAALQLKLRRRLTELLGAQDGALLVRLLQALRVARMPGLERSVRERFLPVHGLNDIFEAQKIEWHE
# T2: human DR3 (TNFRSF25) expressed on cells (human, UniProt Q93038 25-417)
# T2 sequence: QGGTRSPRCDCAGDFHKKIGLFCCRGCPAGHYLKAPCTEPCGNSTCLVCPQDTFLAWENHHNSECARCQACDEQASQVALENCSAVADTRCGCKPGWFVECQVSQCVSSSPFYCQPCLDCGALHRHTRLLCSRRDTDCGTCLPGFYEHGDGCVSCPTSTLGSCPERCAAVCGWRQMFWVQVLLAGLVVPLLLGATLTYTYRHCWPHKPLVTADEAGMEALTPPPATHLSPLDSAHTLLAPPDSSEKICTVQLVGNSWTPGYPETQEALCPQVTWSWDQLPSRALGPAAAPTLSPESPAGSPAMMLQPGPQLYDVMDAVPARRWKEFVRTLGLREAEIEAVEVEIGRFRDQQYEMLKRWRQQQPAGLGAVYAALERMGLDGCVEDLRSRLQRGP
# Tests used:
# DR3-8i [1] = molecular target: T1, DR3-8i; test: BLI, IgG captured on protein A, DR3-8i in solution; Experiment 1
# DR3-8i [2] = molecular target: T1, DR3-8i; test: BLI, IgG captured on protein A, DR3-8i in solution; Average
# DR3-8i [3] = molecular target: T1, DR3-8i; test: BLI, IgG captured on protein A, DR3-8i in solution; Experiment 2
# [4] = molecular target: T2, human DR3 (TNFRSF25) expressed on cells; test: cell-based or functional assay
Binder,Kd (DR3-8i [1]) [nM],Kd (DR3-8i [2]) [nM],Kd (DR3-8i [3]) [nM],"EC50 (pM), DR3 Jurkat reporter [4] [pM]",Signal (FLU) [4] [FLU]
"VHg9/VLg11 (antibody, human IgG1, V domains shown, human IgG1) VH: EVQLVESGGGLVKPGGSLRLSCAASGFTFSSYAMSWVRQAPGKGLEWVSTISDGDSYSYFPDSVKDRFTISRDNAKNSLYLQMNSLRAEDTAVYYCARDRIYGSVQYYAMDYWGQGTLVTVSS VL: DIVMTQSPDSLAVSLGERATINCRASESVEFSGTSLMQWYQQKPGQPPKLLIYAASNVESGVPDRFSGSGSGTDFTLTISSLQAEDVAVYYCQQSRKLPYTFGQGTKLEIK",0.192,0.188,0.184,261,3.27e+06
"VHg1/VLg12 (antibody, human IgG1, V domains shown, human IgG1) VH: QVQLVQSGGGLVQPGGSLRLSCAASGFTFSSYAMSWVRQAPGKGLEWVSTISDGDSYSYFPDSVKDRFTISRDNSKNTLYLQMNSLRAEDTSVYYCARDRIYGSVQYYAMDYWGQGTLVTVSS VL: EIVLTQSPATLSLSPGERATLSCRASESVEFSGTSLMQWYQQKPGQAPRLLIYAASNVESGIPARFSGSGSGTDFTLTISSLEPEDFAVYYCQQSRKLPYTFGQGTKLEIK",0.001,0.0228,0.0445,322,2.76e+06
"VHg5/VLg5 (antibody, human IgG1, V domains shown) VH: QVQLQQSGGGLVQAGGSLRLSCAASGFTFTSYAMSWVRQAPGKGLEWVATISDGDSYSYFPDSVKDRFIISRDNAKNSLFLQMNSLRAEDTAVYYCARDRIYGSVQYYAMDYWGRGTLVTVSS VL: EIVLTQSPGTLSLSPGERGTLSCRASESVEFSGTSLMQWYQQKPGQAPRLLIYAASNVESGIPDRFSGSGSETDFTLTISRLEPEDLAVYYCQQSRKLPYTFGQGTRLEIK",,,,,2.42e+06
"VHg1/VLg5 (antibody, human IgG1, V domains shown) VH: QVQLVQSGGGLVQPGGSLRLSCAASGFTFSSYAMSWVRQAPGKGLEWVSTISDGDSYSYFPDSVKDRFTISRDNSKNTLYLQMNSLRAEDTSVYYCARDRIYGSVQYYAMDYWGQGTLVTVSS VL: EIVLTQSPGTLSLSPGERGTLSCRASESVEFSGTSLMQWYQQKPGQAPRLLIYAASNVESGIPDRFSGSGSETDFTLTISRLEPEDLAVYYCQQSRKLPYTFGQGTRLEIK",,,,,1.99e+06
"VHg1/mVL (antibody, human IgG1, V domains shown) VH: QVQLVQSGGGLVQPGGSLRLSCAASGFTFSSYAMSWVRQAPGKGLEWVSTISDGDSYSYFPDSVKDRFTISRDNSKNTLYLQMNSLRAEDTSVYYCARDRIYGSVQYYAMDYWGQGTLVTVSS VL: DIVLTQSPASLAVSLGQRATISCRASESVEFSGTSLMQWYQQRPGLPPKLLIYAASNVESGVPARFSGSGSGTDFSLNIHPVEEDDIAMYFCQQSRKLPYTFGGGTKLEIN",,,,,2.43e+06
"VHg3/VLg11 (antibody, human IgG1, V domains shown, human IgG1) VH: EVQLVQSGGGLVKPGGSLRLSCAASGFKFSSYAMSWVRQAPGKGLEWLSTISDGDSYSYFPDSVKDRFIISRDNAKNSLYLQMNSLRVEDTGVYYCARDRIYGSVQYYAMDYWGQGTLVTVSS VL: DIVMTQSPDSLAVSLGERATINCRASESVEFSGTSLMQWYQQKPGQPPKLLIYAASNVESGVPDRFSGSGSGTDFTLTISSLQAEDVAVYYCQQSRKLPYTFGQGTKLEIK",0.364,0.491,0.618,1230,2.38e+06
"VHg2/VLg12 (antibody, human IgG1, V domains shown, human IgG1) VH: QMQLVQSGGGLVKPGGSLRLSCAASGFTFSSYAMSWIRQAPGKGLEWVSTISDGDSYSYFPDSVKDRFTISRDNAKNSLYLQMNSLRAEDTAVYYCTRDRIYGSVQYYAMDYWGRGTLVTVSS VL: EIVLTQSPATLSLSPGERATLSCRASESVEFSGTSLMQWYQQKPGQAPRLLIYAASNVESGIPARFSGSGSGTDFTLTISSLEPEDFAVYYCQQSRKLPYTFGQGTKLEIK",0.0644,0.121,0.177,117,2.68e+06
"VHg6/VLg4 (antibody, human IgG1, V domains shown, human IgG1) VH: QVQLQQSGGGLVQPGGSLRLSCAASGFTFSSYAMSWVRQAPGKGLEWVATISDGDSYSYFPDSVKDRFTISRDNARNSLYLQMNSLRAEDTAVYYCARDRIYGSVQYYAMDYWGRGTLVTVSS VL: DVVMTQSPDSLAVSLGERATISCRASESVEFSGTSLMQWYQQKPRQPLKLLIYAASNVESGVPDRFSGSGSGTDFTLTISSLQAEDVAVYYCQQSRKLPYTFGQGTRLEIK",0.25,0.198,0.146,115,2.68e+06
"VHg6/VLg12 (antibody, human IgG1, V domains shown, human IgG1) VH: QVQLQQSGGGLVQPGGSLRLSCAASGFTFSSYAMSWVRQAPGKGLEWVATISDGDSYSYFPDSVKDRFTISRDNARNSLYLQMNSLRAEDTAVYYCARDRIYGSVQYYAMDYWGRGTLVTVSS VL: EIVLTQSPATLSLSPGERATLSCRASESVEFSGTSLMQWYQQKPGQAPRLLIYAASNVESGIPARFSGSGSGTDFTLTISSLEPEDFAVYYCQQSRKLPYTFGQGTKLEIK",0.227,0.157,0.0876,134,2.47e+06
"VHg2/VLg11 (antibody, human IgG1, V domains shown, human IgG1) VH: QMQLVQSGGGLVKPGGSLRLSCAASGFTFSSYAMSWIRQAPGKGLEWVSTISDGDSYSYFPDSVKDRFTISRDNAKNSLYLQMNSLRAEDTAVYYCTRDRIYGSVQYYAMDYWGRGTLVTVSS VL: DIVMTQSPDSLAVSLGERATINCRASESVEFSGTSLMQWYQQKPGQPPKLLIYAASNVESGVPDRFSGSGSGTDFTLTISSLQAEDVAVYYCQQSRKLPYTFGQGTKLEIK",0.0636,0.0536,0.0435,136,2.9e+06
"VHg3/VLg12 (antibody, human IgG1, V domains shown, human IgG1) VH: EVQLVQSGGGLVKPGGSLRLSCAASGFKFSSYAMSWVRQAPGKGLEWLSTISDGDSYSYFPDSVKDRFIISRDNAKNSLYLQMNSLRVEDTGVYYCARDRIYGSVQYYAMDYWGQGTLVTVSS VL: EIVLTQSPATLSLSPGERATLSCRASESVEFSGTSLMQWYQQKPGQAPRLLIYAASNVESGIPARFSGSGSGTDFTLTISSLEPEDFAVYYCQQSRKLPYTFGQGTKLEIK",0.39,0.4,0.409,1480,2.6e+06

# Second part, the binder after the results:
Kd (DR3-8i [1]) [nM],Kd (DR3-8i [2]) [nM],Kd (DR3-8i [3]) [nM],"EC50 (pM), DR3 Jurkat reporter [4] [pM]",Signal (FLU) [4] [FLU],Binder
,,,,2.23e+06,"VHg9/VLg1 (antibody, human IgG1, V domains shown) VH: EVQLVESGGGLVKPGGSLRLSCAASGFTFSSYAMSWVRQAPGKGLEWVSTISDGDSYSYFPDSVKDRFTISRDNAKNSLYLQMNSLRAEDTAVYYCARDRIYGSVQYYAMDYWGQGTLVTVSS VL: DVVMTQSPDSLAVSLGERATINCRASESVEFSGTSLMQWYQQKPGQPPKLLIYAASNVESGVPDRFSGSGSGTDFTLTISSLQAEDVVVYYCQQSRKLPYTFGGGTKVEIK"
,,,,2.32e+06,"VHg9/VLg6 (antibody, human IgG1, V domains shown) VH: EVQLVESGGGLVKPGGSLRLSCAASGFTFSSYAMSWVRQAPGKGLEWVSTISDGDSYSYFPDSVKDRFTISRDNAKNSLYLQMNSLRAEDTAVYYCARDRIYGSVQYYAMDYWGQGTLVTVSS VL: DVVMTQSPPSLPVTPGEPASISCRASESVEFSGTSLMQWYLQKPGQSPQVLIYAASNVESGVPDRFSGSGSGTDFTLKISRVEAEDVGVYYCQQSRKLPYTFGQGTRLEIK"
0.233,0.246,0.259,634,3.08e+06,"VHg10/VLg5 (antibody, human IgG1, V domains shown, human IgG1) VH: EVQLVESGGGLVQPGGSLRLSCAASGFTFSSYAMSWVRQAPGKGLEWVSTISDGDSYSYFPDSVKDRFTISRDNSKNTLYLQMNSLRAEDTAVYYCARDRIYGSVQYYAMDYWGQGTLVTVSS VL: EIVLTQSPGTLSLSPGERGTLSCRASESVEFSGTSLMQWYQQKPGQAPRLLIYAASNVESGIPDRFSGSGSETDFTLTISRLEPEDLAVYYCQQSRKLPYTFGQGTRLEIK"
0.242,0.204,0.167,570,3.17e+06,"VHg10/VLg4 (antibody, human IgG1, V domains shown, human IgG1) VH: EVQLVESGGGLVQPGGSLRLSCAASGFTFSSYAMSWVRQAPGKGLEWVSTISDGDSYSYFPDSVKDRFTISRDNSKNTLYLQMNSLRAEDTAVYYCARDRIYGSVQYYAMDYWGQGTLVTVSS VL: DVVMTQSPDSLAVSLGERATISCRASESVEFSGTSLMQWYQQKPRQPLKLLIYAASNVESGVPDRFSGSGSGTDFTLTISSLQAEDVAVYYCQQSRKLPYTFGQGTRLEIK"
0.166,0.205,0.244,245,3.24e+06,"VHg10/VLg11 (antibody, human IgG1, V domains shown, human IgG1) VH: EVQLVESGGGLVQPGGSLRLSCAASGFTFSSYAMSWVRQAPGKGLEWVSTISDGDSYSYFPDSVKDRFTISRDNSKNTLYLQMNSLRAEDTAVYYCARDRIYGSVQYYAMDYWGQGTLVTVSS VL: DIVMTQSPDSLAVSLGERATINCRASESVEFSGTSLMQWYQQKPGQPPKLLIYAASNVESGVPDRFSGSGSGTDFTLTISSLQAEDVAVYYCQQSRKLPYTFGQGTKLEIK"
